Where two headings read alike, the source gives them in different places.
B1: AKAP95 (endogenous, HeLa cell nuclear extract) (natural protein)
chain: not shown
B2: FLAG-HA-tagged AKAP95 (FH-AKAP95), wild type (natural protein)
chain: not shown

Assays:
[1] = target: the molecule itself; experiment: SDS-resistant dimer on SDS-PAGE immunoblot
[2] = target: the molecule itself; experiment: SDS-resistant dimer on SDS-PAGE immunoblot; remark: listed apart in the source

Row | Protein | stoichiometry N [1] | stoichiometry N [2]
1 | B1 | 2 | 
2 | B2 |  | 2
